This is an account of results in PMC4489650, “Aurora-A-Dependent Control of TACC3 Influences the Rate of Mitotic Spindle Assembly” (PLoS Genetics, 2015).

Assay [1] has as its target T1, complex of AurA-DN/TPX2^1-43 (UniProt O14965 122-403; Q9ULW0 1-43, D274N). The assay can be described thus: NMR; residue pair 519/520, with TPX2 1-43.
The target of assay [2] is T2, AurA-DN (unphosphorylated Aurora-A 122–403 D274N) (UniProt O14965 122-403, D274N).
T2 sequence: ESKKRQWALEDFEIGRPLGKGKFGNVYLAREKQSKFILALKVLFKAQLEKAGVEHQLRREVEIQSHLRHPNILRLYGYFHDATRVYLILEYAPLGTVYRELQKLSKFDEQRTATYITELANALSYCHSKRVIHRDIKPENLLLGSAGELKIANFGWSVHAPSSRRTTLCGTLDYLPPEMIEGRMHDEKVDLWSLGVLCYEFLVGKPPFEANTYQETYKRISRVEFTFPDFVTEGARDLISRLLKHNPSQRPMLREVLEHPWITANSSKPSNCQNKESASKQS
Briefly: NMR; residue pair 520/521.

Assay [3] has as its target T3, complex of AurA-DN/TPX2^1-43 (UniProt O14965 122-403; Q9ULW0 1-43, D274N).
T3 construct: TPX2, first 43 amino acids; Added as a complex in the NMR titration; source: mixed from the purified recombinant proteins m8 and m12
T3 sequence (looked up) 1: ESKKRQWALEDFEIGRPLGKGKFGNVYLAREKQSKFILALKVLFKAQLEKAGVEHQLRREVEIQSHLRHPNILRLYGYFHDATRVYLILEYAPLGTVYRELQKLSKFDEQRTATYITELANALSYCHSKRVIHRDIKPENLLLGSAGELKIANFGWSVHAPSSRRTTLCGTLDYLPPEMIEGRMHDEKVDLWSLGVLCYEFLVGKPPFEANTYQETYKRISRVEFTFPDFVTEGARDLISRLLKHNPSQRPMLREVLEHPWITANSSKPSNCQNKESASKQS
T3 sequence (looked up) 2: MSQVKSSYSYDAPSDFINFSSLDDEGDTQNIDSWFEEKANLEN
The assay can be described thus: NMR titration; 15N-labelled TACC3act (75 uM constant in titrations) with unlabelled AurA-DN or the AurA-DN/TPX2^1-43 complex at 0-225 uM; 1H-15N HSQC; 20 mM potassium phosphate pH 7.0, 50 mM NaCl, 1 mM DTT, 0.02% sodium azide, 5 mM ADP/MgCl2; chemical shift changes fit to Eq 1. Particulars: both partners purified.

For assay [4], the target named is T4, AurA-DN (unphosphorylated Aurora-A 122–403 D274N) (UniProt O14965 122-403, D274N).
T4 construct: source: recombinant, expressed from pET30TEV, purified (Chelating Sepharose, SEC), dialysed into NMR buffer with 5 mM ADP/MgCl2
T4 sequence (looked up): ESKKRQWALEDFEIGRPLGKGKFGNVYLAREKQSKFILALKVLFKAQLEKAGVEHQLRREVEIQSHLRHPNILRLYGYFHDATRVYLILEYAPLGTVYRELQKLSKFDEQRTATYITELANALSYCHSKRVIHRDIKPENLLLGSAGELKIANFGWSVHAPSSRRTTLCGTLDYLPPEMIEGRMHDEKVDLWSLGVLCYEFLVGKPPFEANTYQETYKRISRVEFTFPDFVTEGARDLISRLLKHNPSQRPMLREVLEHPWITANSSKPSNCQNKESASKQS
The description is as above. Particulars: both partners purified.

The target of assay [5] is T1, complex of AurA-DN/TPX2^1-43. Briefly: NMR; residue pair 520/521, with TPX2 1-43.
In assay [6] the target is T5, AurA-DN C290A, C393A (UniProt O14965 122-403, D274N | C290A | C393A).
T5 construct: also called Aurora-A kinase domain (SEC); source: recombinant, purified; not further stated
T5 sequence (looked up): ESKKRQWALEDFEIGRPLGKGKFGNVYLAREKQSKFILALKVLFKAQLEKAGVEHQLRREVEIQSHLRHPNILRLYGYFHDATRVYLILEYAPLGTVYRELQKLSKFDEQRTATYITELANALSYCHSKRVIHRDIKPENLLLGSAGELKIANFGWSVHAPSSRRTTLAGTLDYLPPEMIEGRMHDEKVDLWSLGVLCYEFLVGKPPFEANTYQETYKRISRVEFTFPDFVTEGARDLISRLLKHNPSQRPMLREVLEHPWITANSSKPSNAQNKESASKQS
Briefly: SEC; AurA-DN C290A, C393A, TPX2^1-43 and TACC3act alone and in complex on a HiLoad Superdex 200 16/60 column; fractions analysed by SDS-PAGE. Particulars: both partners purified.

Assay [7] concerns the target T6, Aurora-A 122–403 C290A, C393A (UniProt O14965 122-403, C290A | C393A, labelled with NT-647-NHS dye).
T6 construct: also called labelled Aurora-A; source: recombinant, expressed from pET30TEV, purified (Chelating Sepharose, SEC)
T6 sequence (looked up): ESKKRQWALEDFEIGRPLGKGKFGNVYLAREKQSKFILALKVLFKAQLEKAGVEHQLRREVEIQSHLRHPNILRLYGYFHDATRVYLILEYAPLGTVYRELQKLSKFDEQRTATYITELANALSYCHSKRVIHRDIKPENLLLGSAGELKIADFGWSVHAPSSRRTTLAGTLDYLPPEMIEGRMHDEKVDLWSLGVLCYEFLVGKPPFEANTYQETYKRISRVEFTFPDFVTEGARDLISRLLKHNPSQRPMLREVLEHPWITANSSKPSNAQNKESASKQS
The assay can be described thus: MST; 50 nM NT-647-labelled Aurora-A 122-403 C290A, C393A; TACC3act-H6c constructs 0.2-3950 uM; 50 mM Tris pH 7.6, 150 mM NaCl, 10 mM MgCl2, 5 mM beta-mercaptoethanol, 0.05% TWEEN 20; 25 C; one-site fit (Eq 2). Particulars: both partners purified.

Assay [8] deals with T7, TACC3-H6c phospho-mimic mutant (SE: S34, S552 and S558 mutated to glutamic acid) (human, UniProt Q9Y6A5 1-838, S34 to glutamic acid | S552 to glutamic acid | S558 to glutamic acid).
T7 construct: TACC3, human, full length, three Aurora-A phosphorylation sites mutated to glutamic acid; source: recombinant, expressed from pET-44C3, purified; not shown: His6, C-terminal, kept
The assay can be described thus: pull-down; GST co-precipitation: 100 ug GST-AurA-DN (2 uM in the TPX2 gradient experiment, with 5 uM TACC3act-H6c and 1-50 uM His6-TPX2^1-43) immobilised on Gluthathione Sepharose 4B; 100 ug TACC3 or TPX2^1-43 added, 2 hrs at 4 C; 50 mM Tris pH 7.5, 150 mM NaCl, 5 mM MgCl2, 5 mM beta-mercaptoethanol, 0.02% TWEEN 20; SDS-PAGE and anti-His6 blot. The settings on record: both partners purified.

Assay [9] deals with T8, TACC3-H6c (full-length human TACC3 with a C-terminal non-cleavable His-tag) (human, UniProt Q9Y6A5 1-838).
T8 construct: TACC3, human, full length; also called full-length TACC3; TACC3-H6c WT; source: recombinant, expressed from pET-44C3, purified; not shown: His6, C-terminal, kept
The assay is described as above. Particulars: both partners purified.

Assay [10] has as its target T9, TACC3-H6c phospho-null mutant (SA: S34A, S552A, S558A) (human, UniProt Q9Y6A5 1-838, S34A | S552A | S558A).
T9 construct: TACC3, human, full length, three Aurora-A phosphorylation sites mutated to alanine; source: recombinant, expressed from pET-44C3, purified; not shown: His6, C-terminal, kept
The description is as above. The settings on record: both partners purified.

B1: TACC3act (human TACC3 residues 519–563) (domain or fragment, UniProt Q9Y6A5 519-563, looked up)
chain: ELKEESFRDPAEVLGTGAEVDYLEQFGTSSFKESALRKQSLYLKF
notes: also called ^15N-labelled TACC3act; source: recombinant, expressed from pETM6T1, purified (SEC); 15N- or 15N/13C-labelled for NMR
As for B1, the Kd (commonly the equilibrium constant for the complex coming apart) in [1] came out at 0.6 µM; in assay [2], 7.5 µM; in [3], 1.1 ± 1.2 µM; in assay [4], 8.2 ± 0.8 µM; in assay [5], 1.6 µM. In addition, the binding result in assay [6] is given as “binds”.

B2: TACC3act-H6c (human TACC3 residues 519–563 with a C-terminal His-tag) (domain or fragment, UniProt Q9Y6A5 519-563, looked up)
chain: ELKEESFRDPAEVLGTGAEVDYLEQFGTSSFKESALRKQSLYLKF
notes: also called TACC3act-H6c WT; WT TACC3act; source: recombinant, construct made by the same method as TACC3-H6c, purified; not shown: His6, C-terminal, kept
B2 yielded a Kd in [7] of 5.7 ± 0.4 µM.

B3: TACC3act-H6c F525A (domain or fragment, human, UniProt Q9Y6A5 519-563, looked up)
chain: ELKEESARDPAEVLGTGAEVDYLEQFGTSSFKESALRKQSLYLKF
notes: also called F525A mutant; source: recombinant, purified; not shown: His6, C-terminal, kept
For B3, in [7], binding was put at a Kd of 152 ± 9.3 µM.

B4: GST-AurA-DN (GST fused to Aurora-A catalytic domain 122–403 D274N) (domain or fragment, UniProt O14965 122-403, looked up)
chain: ESKKRQWALEDFEIGRPLGKGKFGNVYLAREKQSKFILALKVLFKAQLEKAGVEHQLRREVEIQSHLRHPNILRLYGYFHDATRVYLILEYAPLGTVYRELQKLSKFDEQRTATYITELANALSYCHSKRVIHRDIKPENLLLGSAGELKIANFGWSVHAPSSRRTTLCGTLDYLPPEMIEGRMHDEKVDLWSLGVLCYEFLVGKPPFEANTYQETYKRISRVEFTFPDFVTEGARDLISRLLKHNPSQRPMLREVLEHPWITANSSKPSNCQNKESASKQS
notes: also called GST-Aurora-A; source: recombinant, expressed from pGEX-cs, purified (Gluthathione Sepharose 4B, SEC); not shown: GST, N-terminal, kept
For B4, the binding result in assay [8], in assay [9] and in assay [10] was “binds” in each case.
